In test [1] the target is AP2β2 (Homo sapiens) (UniProt P63010). The test can be described thus: EPR. The note with it: cited from earlier work.
Test [2] concerns the target CCR5pp3 phosphopeptide C-terminal phosphopeptide (Homo sapiens) (UniProt P51681). Particulars: cited from earlier work.
Test [3] concerns the target arrestin2^1-418 (full-length human arrestin2) (human) (UniProt P49407).
The target in test [4] is T1, AP2β2 (Homo sapiens, UniProt P63010).
T1 chain: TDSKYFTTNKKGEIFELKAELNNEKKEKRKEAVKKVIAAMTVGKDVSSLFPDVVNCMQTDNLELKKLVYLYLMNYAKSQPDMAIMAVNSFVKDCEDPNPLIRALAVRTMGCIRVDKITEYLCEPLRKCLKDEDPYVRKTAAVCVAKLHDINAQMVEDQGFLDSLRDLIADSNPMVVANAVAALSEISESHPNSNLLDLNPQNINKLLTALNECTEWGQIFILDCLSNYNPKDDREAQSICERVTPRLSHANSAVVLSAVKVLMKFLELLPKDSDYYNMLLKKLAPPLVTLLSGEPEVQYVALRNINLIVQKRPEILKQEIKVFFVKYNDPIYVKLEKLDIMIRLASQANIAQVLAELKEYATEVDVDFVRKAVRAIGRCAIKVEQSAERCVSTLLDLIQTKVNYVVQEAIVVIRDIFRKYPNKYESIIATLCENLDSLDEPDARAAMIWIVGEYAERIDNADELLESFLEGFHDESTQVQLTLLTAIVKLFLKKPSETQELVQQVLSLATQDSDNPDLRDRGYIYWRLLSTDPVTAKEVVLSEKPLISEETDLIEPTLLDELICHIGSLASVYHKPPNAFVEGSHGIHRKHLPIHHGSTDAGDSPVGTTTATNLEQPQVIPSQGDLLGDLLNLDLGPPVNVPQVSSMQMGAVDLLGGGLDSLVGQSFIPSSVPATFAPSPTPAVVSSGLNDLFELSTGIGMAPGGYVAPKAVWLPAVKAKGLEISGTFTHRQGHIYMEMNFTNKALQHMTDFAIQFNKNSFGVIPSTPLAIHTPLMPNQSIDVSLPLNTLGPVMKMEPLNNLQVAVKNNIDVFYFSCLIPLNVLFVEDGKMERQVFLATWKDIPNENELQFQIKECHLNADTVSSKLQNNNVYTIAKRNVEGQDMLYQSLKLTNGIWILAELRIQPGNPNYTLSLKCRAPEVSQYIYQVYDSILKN
The test can be described thus: SEC. On the technique in general: Size exclusion chromatography separates by hydrodynamic size, large species first.

Test [5] deals with T2, clathrin-N (clathrin heavy chain 1 N-terminal domain, residues 1–364) (UniProt Q00610 1-364).
T2 construct: the construct used here is 1–364; Tag removed with 3C protease; pETM33 may add GST besides the His tag (surmise); Used 15N,2H-labelled or unlabelled; also called clathrin heavy chain N-terminal domain; CLTC Clathrin propeller; source: E. coli BL21 (DE3), purified (Ni-NTA, reverse IMAC, gel filtration)
T2 sequence (looked up): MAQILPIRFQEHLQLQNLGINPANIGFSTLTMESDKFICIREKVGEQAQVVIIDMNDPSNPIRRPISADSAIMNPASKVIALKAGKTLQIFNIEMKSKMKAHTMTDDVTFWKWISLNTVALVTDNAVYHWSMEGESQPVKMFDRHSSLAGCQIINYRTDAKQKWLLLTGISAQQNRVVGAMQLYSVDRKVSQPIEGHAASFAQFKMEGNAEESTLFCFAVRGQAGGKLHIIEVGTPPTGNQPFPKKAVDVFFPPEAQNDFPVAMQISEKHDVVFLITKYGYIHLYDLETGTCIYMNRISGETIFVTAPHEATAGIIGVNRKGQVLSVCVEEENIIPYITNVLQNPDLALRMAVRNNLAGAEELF
The test can be described thus: NMR titration; 50 μM 15N,2H-labelled clathrin-N observed (1H-15N HSQC-TROSY, 900 MHz), unlabelled arrestin2 construct added up to equimolar, no phosphopeptide; 20 mM HEPES, 150 mM NaCl, pH 7.4, 303 K. The note with it: both partners purified.

The target of test [6] is T2, clathrin-N (clathrin heavy chain 1 …). The test can be described thus: NMR titration; 50 μM Ile-δ1-13CH3,2H-labelled arrestin2^1-393 observed (1H-13C HMQC), unlabelled clathrin-N up to 600 μM; I377 13C shifts fitted with a 1:1 isotherm; apparent; 20 mM HEPES, 150 mM NaCl, pH 7.4, 303 K. Particulars: both partners purified.

Chain of CCR5pp3 phosphopeptide C-terminal phosphopeptide (Homo sapiens) (P51681 332-352): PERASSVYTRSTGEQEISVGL

For the molecule “arrestin β20 peptide 383-402 (from UniProt P49407)”, the Kd in test [1] was 9 µM.
Regarding arrestin2 (from UniProt P49407), the Kd in test [2] was 200 µM.
With “AP2β2^701-937 (C-terminal domain of the β2 subunit of the AP2 complex, residues 701–937) (from UniProt P63010 701-937) (domain or fragment)”, the protection of CCR5pp6-activated arrestin2^1-418 from trypsin: proteolysis midpoint at 1-, 2- and 5-molar equivalents of AP2β2^701-937 (10 to 30 min) in test [3] came to 30 min.

B1: arrestin2 (protein)
chain: MGDKGTRVFKKASPNGKLTVYLGKRDFVDHIDLVDPVDGVVLVDPEYLKERRVYVTLTCAFRYGREDLDVLGLTFRKDLFVANVQSFPPAPEDKKPLTRLQERLIKKLGEHAYPFTFEIPPNLPCSVTLQPGPEDTGKACGVDYEVKAFCAENLEEKIHKRNSVRLVIRKVQYAPERPGPQPTAETTRQFLMSDKPLHLEASLDKEIYYHGEPISVNVHVTNNTNKTVKKIKISVRQYADICLFNTAQYKCPVAMEEADDTVAPSSTFCKVYTLTPFLANNREKRGLALDGKLKHEDTNLASSTLLREGANREILGIIVSYKVKVKLVVSRGGLLGDLASSDVAVELPFTLMHPKPKEEPPHREVPENETPVDTNLIELDTNDDDIVFEDFARQRLKGMKDDKEEEEDGTGSPQLNNR
modifications: CCR5pp4 phosphopeptide
Consider B1, for which the Kd in test [4] came to 44 µM.

B2: arrestin2 (protein)
chain: MGDKGTRVFKKASPNGKLTVYLGKRDFVDHIDLVDPVDGVVLVDPEYLKERRVYVTLTCAFRYGREDLDVLGLTFRKDLFVANVQSFPPAPEDKKPLTRLQERLIKKLGEHAYPFTFEIPPNLPCSVTLQPGPEDTGKACGVDYEVKAFCAENLEEKIHKRNSVRLVIRKVQYAPERPGPQPTAETTRQFLMSDKPLHLEASLDKEIYYHGEPISVNVHVTNNTNKTVKKIKISVRQYADICLFNTAQYKCPVAMEEADDTVAPSSTFCKVYTLTPFLANNREKRGLALDGKLKHEDTNLASSTLLREGANREILGIIVSYKVKVKLVVSRGGLLGDLASSDVAVELPFTLMHPKPKEEPPHREVPENETPVDTNLIELDTNDDDIVFEDFARQRLKGMKDDKEEEEDGTGSPQLNNR
modifications: CCR5pp6 phosphopeptide
The molecule B2 came in with a Kd in test [4] of 9 µM.

B3: arrestin2 (protein)
chain: MGDKGTRVFKKASPNGKLTVYLGKRDFVDHIDLVDPVDGVVLVDPEYLKERRVYVTLTCAFRYGREDLDVLGLTFRKDLFVANVQSFPPAPEDKKPLTRLQERLIKKLGEHAYPFTFEIPPNLPCSVTLQPGPEDTGKACGVDYEVKAFCAENLEEKIHKRNSVRLVIRKVQYAPERPGPQPTAETTRQFLMSDKPLHLEASLDKEIYYHGEPISVNVHVTNNTNKTVKKIKISVRQYADICLFNTAQYKCPVAMEEADDTVAPSSTFCKVYTLTPFLANNREKRGLALDGKLKHEDTNLASSTLLREGANREILGIIVSYKVKVKLVVSRGGLLGDLASSDVAVELPFTLMHPKPKEEPPHREVPENETPVDTNLIELDTNDDDIVFEDFARQRLKGMKDDKEEEEDGTGSPQLNNR
modifications: CCR5pp3 phosphopeptide
For the molecule B3, the Kd in test [4] was 40 µM.

B4: arrestin2^1-393 (truncated human arrestin2, residues 1–393) (domain or fragment)
chain: MGDKGTRVFKKASPNGKLTVYLGKRDFVDHIDLVDPVDGVVLVDPEYLKERRVYVTLTCAFRYGREDLDVLGLTFRKDLFVANVQSFPPAPEDKKPLTRLQERLIKKLGEHAYPFTFEIPPNLPCSVTLQPGPEDTGKACGVDYEVKAFLAENLEEKIHKRNSVRLVIRKVQYAPERPGPQPTAETTRQFLMSDKPLHLEASLDKEIYYHGEPISVNVHVTNNTNKTVKKIKISVRQYADIVLFNTAQYKVPVAMEEADDTVAPSSTFSKVYTLTPFLANNREKRGLALDGKLKHEDTNLASSTLLREGANREILGIIVSYKVKVKLVVSRGGLLGDLASSDVAVELPFTLMHPKPKEEPPHREVPENETPVDTNLIELDTNDDDIVFEDFAR
modifications: Cys replacements inferred from the printed arrestin2-ΔCBL sequence (L150, V242, V251, S269), assumed to share the parent construct of Isaikina et al. 2023; not stated in this text for 1-393. Isotope …
One may read the stoichiometry N as the number of molecules, sites or subunits per partner or assembly. Take B4: the “stoichiometry N” value in test [5] amounted to 1. Also, in test [6], the Kd is 104 ± 9 µM.

The values above are taken from publication PMC12815460, “A high-resolution analysis of arrestin2 interactions responsible for CCR5 endocytosis” (eLife, 2026).
